Target: T1, CopR (CopRHis6) (Lactobacillus plantarum CAUH2, UniProt F9UU50 1-142)
T1 sequence: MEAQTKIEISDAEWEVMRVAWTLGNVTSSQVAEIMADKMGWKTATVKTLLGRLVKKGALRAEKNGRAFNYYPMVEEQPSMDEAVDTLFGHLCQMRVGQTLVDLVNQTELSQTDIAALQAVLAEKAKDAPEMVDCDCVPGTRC
Test: EMSA; no Cu2+ added; 2.5 ug CopRHis6, 20 fmol probe; 20 uL: 1x LightShift binding buffer, 50 ng/uL poly(dI-dC), 2.5% glycerol, 0.05% NP-40, 5 mM MgCl2, 20 fmol probe, 2.5 ug CopRHis6; pH, salt and temperature not
Settings: protein: recombinant; tags: C-terminal His6; chain copies: 2; label: 3' biotin; blunt

B1: copB promoter probe (EMSA copB-F/-R) (dsDNA)
DNA 1: GTGTTTTTCTTGACTTTTATCGTCTACAATTGTAAACTTTAGCCATAAATTACAGATGTAGACAAT
DNA 2: ATTGTCTACATCTGTAATTTATGGCTAAAGTTTACAATTGTAGACGATAAAAGTCAAGAAAAACAC
binding result: binds

— publication PMC5651008, “The Copper Homeostasis Transcription Factor CopR Is Involved in H2O2 Stress in Lactobacillus plantarum CAUH2”
